Like-named read-outs stand apart in the source and are kept apart here.
What was measured:
[1] = background values; cited from earlier work
[2] = CuFL1A fluorescence NO sensor assay in solution; type: biochemical; conditions: for CuFL1A fluorescence on addition of DEANO: DEANO added to the solution
Experimental: In various studies to test these potential mechanisms, PEM may be incubated with a NO probe. […] When non-emissive CuFL1A reacts with NO, Cu(II) is reduced to Cu(I), among other changes, to produce fluorescent FL1A-NO. In this manner, CuFL1A may be used as an NO sensor activated by fluorescence to assess the relative NO levels in solution. In various studies, cultured umbilical vein endothelial cells may be incubated with CuFL1A and either PEM or a control in order to assess changes in NO levels in the extracellular environment. In various studies, luminal chemiluminescence due to the presence of reactive oxygen species may be used to assess the biological consequences of PEM-bound NO promotion of neutrophil activation. The FL1A ligands may be dissolved in spectroscopic grade DMSO to achieve a final concentration of the stock solution of around […]. To determine the exact concentration, the stock solution may be diluted in pH 7 aqueous buffer and the absorbance of the bands at 504 and 499 nm may be measured with E=4.6×104 M-1 cm-1. The absorbance value and dilution factor may be recorded and the exact concentration of the ligand in the stock solution may be calculated. The DMSO stock solution of the metal-free ligand may be aliquoted in 50 μL portions and stored at -80° C. The aliquots may be thawed and the absorbance of the band at 504 or 499 nm may be checked before use. […] The copper complex may be prepared fresh, immediately before cell incubation, using one of the frozen aliquots of the ligand stock solution. […] The unused portion of the solution may be discarded by the end of the day. In an example study, half of the free MetMb and […] suspensions were incubated with sodium sulfate to reduce the myoglobin back to its oxyMb form. The free oxyMb and oxyPEM suspensions were then dialyzed for 4h to remove salt, and the rest of the original metMb and […] suspensions were used as received. […] A 2× concentrated stock solution of metMb (50 mg/mL in PBS) and oxyMb (50 mg/mL in PBS) was prepared. The final concentrations of empty polymersomes, […] and oxyPEM were determined by UV-Vis spectrometry and ICP-OES. The final volume in each well was 200 μL, and therefore 100 μL of each solution was added per well, thus diluting these original stock solutions by half. Fluorescence was measured various time points for each condition.

[3] = system: human umbilical vein endothelial cells (HUVECs); assay: CuFL1A fluorescence, extracellular NO of cultured HUVECs; type: cell-based; conditions: for effect of further additions of DEANO on CuFL1A emission: DEANO added; for CuFL1A fluorescence compared to extracellular environment of HUVECs: no DEANO
Experimental: Cells may be incubated with 1 μM or less, relative to total concentration, of the NO sensor in PBS buffer or a growth medium for imaging. Concentration may be adjusted to reduce the fluorescent signal intensity to desired levels. Imaging of extra-cellular NO may be performed directly in the growth medium for imaging, and images may be taken as often as needed following cell stimulation.
In another example study, pooled 4× passaged human umbilical vein endothelial cells (HUVECs) were grown in Corning Costar 96 well white plates with clear bottoms in EBM-2 media to 80-90% confluence. Half of the free metMb and metPEM suspensions were incubated with sodium sulfate to reduce the myoglobin back to oxyMb form. The free oxyMb and oxyPEM suspensions were then dialyzed for four hours to remove salt. The rest of the original metMb and metPEM suspensions were used as received.
A 4× concentrated FL1A stock solution (10 μM in PBS+gluc+ca+mg/DMSO), a 4× concentrated DEANO stock solution (200 μM in 10 mM NaOH), and a 4× concentrated LNNA stock solution (400 μM in PBS+glu+ca+mg) were prepared so that 50 μL of each was added per well to a final and consistent volume of 200 μL per well.
A 2× concentrated stock solution of metMb (50 mg/mL in PBS+gluc+ca+mg) and 2× concentrated oxyMb (50 mg/mL in PBS+gluc+ca+mg) solution were also prepared. […] Fluorescence readings were obtained from each well following a set 30-minute incubation period with each of the experimental groups.

[4] = Oxygen equilibrium binding curves (Hemox Analyzer, Hill model); conditions: 37° C.; partial pressure of O2 at 50% saturation
Experimental: Oxygen equilibrium binding curves of PEM and free Mb dispersions may be measured using a Hemox™ Analyzer at physiological temperature (37° C.). In brief, samples may be allowed to saturate to a pO2 of 147 mm Hg using compressed air and then deoxygenated using a compressed nitrogen stream. UV-Vis absorbance measurements of oxygenated and deoxygenated samples may be recorded as a function of pO2 via dual wavelength spectroscopy. Oxygen-PEM/myoglobin equilibrium curves may be fit to a four-parameter (A0, A∞, P50, n) Hill model:
in which A0 and A∞ represent the absorbance at 0 mm Hg and at full O2 saturation, respectively. The pO2 represents the partial pressure of O2, and P50 represents the partial pressure of O2 where PEM/Mb is 50% saturated with oxygen. Lastly, ‘n’ represents the cooperativity coefficient of PEM/Mb. […] The lower O2 affinity (higher P50) of PEM than free myoglobin may be attributed to the shielding effect of the polymersome membrane, which was further found to delay the kinetics of O2 binding to PEM.

HUVECs = assay: Luminol chemiluminescence (reactive oxygen species) with HUVECs alone; type: cell-based, human; conditions: HUVECs without neutrophils, 30 minutes
Experimental: (§1) In another example study, similar to the previous study, pooled 4× passaged human umbilical vein endothelial cells (HUVECs) were grown in Corning Costar 96 well white plate with clear bottoms in EBM-2 media to 80-90% confluence. Half of the free metMb and […] suspensions were incubated with sodium sulfate to reduce the myoglobin back to oxyMb form. The free oxyMb and oxyPEM suspensions were then dialyzed for four hours to remove salt. The rest of the original metMb and […] suspensions were used as received. […] A 2× concentrated stock solution of metMb (50 mg/mL in PBS+gluc+ca+mg) and 2× concentrated stock of oxyMb (50 mg/mL in PBS+gluc+ca+mag) were prepared. The final concentrations of empty polymersome, […], and oxyPEM were determined by UV-Vis spectrometry and ICP-OES. […] Further, 600 μM of a luminol solution in media containing 18.75 μ/mL horseradish peroxidase (HRP) was prepared, with final concentrations in assay wells of around 120 μM luminol and 3.75 μ/mL HRP. […] A luminometor was used to continuously measure instantaneous reactive oxygen species generation after addition of each treatment administered to the HUVECs with and without neutrophils (total assay time 30 minutes). At the end of the study, sample supernatant were aliquoted and the cells were fixed and frozen for future myeloperoxidase assays or MPO ELISAs to look at degranulation.

[5] = system: human neutrophils incubated with HUVECs; assay: Luminol chemiluminescence, neutrophil activation on HUVECs; type: cell-based; conditions: for generation of reactive oxygen species compared to luminol control: neutrophils with HUVECs, 30 minutes, maximal concentrations (25 mg/mL polymer or protein; metPEM 1.3 mg/mL metMb, 23.5 mg/mL polymer)
Experimental: as §1, with “received. Further, a ficoll-paque density gradient separation was used to purify fresh human neutrophils and re-suspend in media at a concentration of 6×10^6 neutrophils/mL. In the assay, […] aliquots were added per well, with a final volume of 200 μL per well, as in the study above.” for “received.”

[6] = no DEANO, higher concentrations (e.g. 25 mg/mL metMb)

Molecule | P50 [1] | affinity for oxygen / oxygen tension of release [1] [mmHg] | CuFL1A fluorescence on addition of DEANO [2] | CuFL1A fluorescence compared to its intensity in PBS [2, 6] | effect of further additions of DEANO on CuFL1A emission [3] | CuFL1A fluorescence compared to extracellular environment of HUVECs [3] | generation of reactive oxygen species (luminol chemiluminescence) (HUVECs) | generation of reactive oxygen species compared to luminol control [5] | further results
hemoglobin A: Normal adult hemoglobin A | 26.5 mmHg |  |  |  |  |  |  |  | 
CCN(CC)/[N+]([O-])=N/O.CCNCC [DEANO, diethylamine NO, reference compound] |  |  |  |  |  |  |  |  | CuFL1A fluorescence compared to its intensity in PBS ([2]; solution, no cells): around seven-fold; increase in CuFL1A emission in extracellular environment of HUVECs ([3]; 30-minute incubation): ~1.5 fold
hemoglobin: oxygen-transporting protein in human red blood cells | 25-50 mmHg | 20 to 50 |  |  |  |  |  |  | 
free Mb: free (unencapsulated) myoglobin (protein, UniProt P68082 2-154, looked up) Myoglobin: GLSDGEWQQVLNVWGKVEADIAGHGQEVLIRLFTGHPETLEKFDKFKHLKTEAEMKASEDLKKHGTVVLTALGGILKKKGHHEAELKPLAQSHATKHKIPIKYLEFISDAIIHVLHSKHPGDFGADAQGAMTKALELFRNDIAAKYKELGFQG | 2.75 mmHg | 2 to 3 |  |  |  |  |  |  | P50 [4]: ~2 mm Hg
oxyMb: oxygenated myoglobin, free protein (protein, UniProt P68082 2-154, looked up, oxygenated form, oxygenated myoglobin, free protein) Myoglobin: GLSDGEWQQVLNVWGKVEADIAGHGQEVLIRLFTGHPETLEKFDKFKHLKTEAEMKASEDLKKHGTVVLTALGGILKKKGHHEAELKPLAQSHATKHKIPIKYLEFISDAIIHVLHSKHPGDFGADAQGAMTKALELFRNDIAAKYKELGFQG |  |  | did not augment CuFL1A fluorescence | markedly decreased to baseline values | not able to mitigate | diminished | do not, in and of themselves, result in the generation of reactive oxygen species | statistically significant increase | CuFL1A fluorescence compared to its intensity in PBS ([2]; no DEANO, low concentrations (metMb up to 5 mg/mL)): greater; effect of DEANO addition on neutrophil activation ([5]; DEANO added): did not mitigate the levels of neutrophil activation
metMb: metmyoglobin, free protein (protein, UniProt P68082 2-154, looked up, met (ferric) form, metmyoglobin, free protein) Myoglobin: GLSDGEWQQVLNVWGKVEADIAGHGQEVLIRLFTGHPETLEKFDKFKHLKTEAEMKASEDLKKHGTVVLTALGGILKKKGHHEAELKPLAQSHATKHKIPIKYLEFISDAIIHVLHSKHPGDFGADAQGAMTKALELFRNDIAAKYKELGFQG |  |  | the degree of amplification in CuFL1A emission was lower | dramatically reduced | only able to partially mitigate | diminished | do not, in and of themselves, result in the generation of reactive oxygen species | no appreciable generation of reactive oxygen species | total oxidative burst (integrated luminol chemiluminescence), neutrophil activation ([5]; 30 minute incubation): did not have any effects
